Patent US20030103985A1

Target: CD44v6 on antigen-positive FaDu cells (human head and neck cancer cell line) (human) (UniProt P16070)
Test: flow cytometry (FACS) on FaDu cells, FITC-labeled anti-human IgG detection, on ice

Kd: 1 nM
B1: BIWA 4 (antibody, human IgG1, kappa, V domains shown)
VH: EVQLVESGGGLVKPGGSLRLSCAASGFTFSSYDMSWVRQAPGKGLEWVSTISSGGSYTYYLDSIKGRFTISRDNAKNSLYLQMNSLRAEDTAVYYCARQGLDYWGRGTLVTVSS
VL: EIVLTQSPATLSLSPGERATLSCSASSSINYIYWYQQKPGQAPRLLIYLTSNLASGVPARFSGSGSGTDFTLTISSLEPEDFAVYYCLQWSSNPLTFGGGTKVEIKR
